Paper PMC7954794, “Protein context shapes the specificity of SH3 domain-mediated interactions in vivo” (Nature Communications, 2021)

Tested on: PPIs identified as affected by the SH3 domain deletions
Experiment: Liquid DHFR-PCA low-throughput validation of PPIs affected by SH3 deletion (Fig. S1D-E)
Assay type: cell-based, Saccharomyces cerevisiae
Conditions: label = prey, liquid DHFR-PCA, prey _1 = lost, _2 = gained in screen
Procedure, shortened: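 Growth at 30 °C was tracked by OD each 15 min over 72 h in agar-free PCA selection medium, starting at 0.1 OD. Cells were diploids selected after mating, first cultured 48 h with NAT and HPH in synthetic complete MSG medium, pH 6.0.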

B1: YLR196W_1 (protein, UniProt P21304 1-576, looked up)
Periodic tryptophan protein 1: MISATNWVPRGFSSEFPEKYVLDDEEVERINQLAQLNLDDAKATLEEAEGESGVEDDAATGSSNKLKDQLDIDDDLKEYNLEEYDDEEIADNEGGKDVSMFPGLSNDSDVKFHEGEKGEDPYISLPNQEDSQEEKQELQVYPSDNLVLAARTEDDVSYLDIYVYDDGAGFHSSDIPVEEGDEADPDVARGLVRDPALYVHHDLMLPAFPLCVEWLDYKVGSNSEEAANYAAIGTFDPQIEIWNLDCVDKAFPDMILGEPLDNSMVSLKSKKKKKKSKTGHITTHHTDAVLSMAHNKYFRSVLASTSADHTVKLWDLNSGNAARSLASIHSNKNVSSSEWHMLNGSILLTGGYDSRVALTDVRISDESQMSKYWSAMAGEEIETVTFASENIILCGTDSGNVYSFDIRNNENRKPVWTLKAHDAGISTLCSNKFIPGMMSTGAMGEKTVKLWKFPLDDATNTKGPSMVLSRDFDVGNVLTSSFAPDIEVAGTMVIGGVNKVLKLWDVFTNRSVRKSFKSELENVQARAKEEAQKIGKSSRIARKYTSNDNPDTVITIDDQGEDEEEREGGDEHDDMA
- Ratio (Deletedscore / WTscore) (bait BBC1): 1.08

B2: YLR337C_1 (protein, UniProt P37370 1-817, looked up)
Verprolin: MAGAPAPPPPPPPPALGGSAPKPAKSVMQGRDALLGDIRKGMKLKKAETNDRSAPIVGGGVVSSASGSSGTVSSKGPSMSAPPIPGMGAPQLGDILAGGIPKLKHINNNASTKPSPSASAPPIPGAVPSVAAPPIPNAPLSPAPAVPSIPSSSAPPIPDIPSSAAPPIPIVPSSPAPPLPLSGASAPKVPQNRPHMPSVRPAHRSHQRKSSNISLPSVSAPPLPSASLPTHVSNPPQAPPPPPTPTIGLDSKNIKPTDNAVSPPSSEVPAGGLPFLAEINARRSERGAVEGVSSTKIQTENHKSPSQPPLPSSAPPIPTSHAPPLPPTAPPPPSLPNVTSAPKKATSAPAPPPPPLPAAMSSASTNSVKATPVPPTLAPPLPNTTSVPPNKASSMPAPPPPPPPPPGAFSTSSALSASSIPLAPLPPPPPPSVATSVPSAPPPPPTLTTNKPSASSKQSKISSSSSSSAVTPGGPLPFLAEIQKKRDDRFVVGGDTGYTTQDKQEDVIGSSKDDNVRPSPISPSINPPKQSSQNGMSFLDEIESKLHKQTSSNAFNAPPPHTDAMAPPLPPSAPPPPITSLPTPTASGDDHTNDKSETVLGMKKAKAPALPGHVPPPPVPPVLSDDSKNNVPAASLLHDVLPSSNLEKPPSPPVAAAPPLPTFSAPSLPQQSVSTSIPSPPPVAPTLSVRTETESISKNPTKSPPPPPSPSTMDTGTSNSPSKNLKQRLFSTGGSTLQHKHNTHTNQPDVDVGRYTIGGSNSIVGAKSGNERIVIDDSRFKWTNVSQMPKPRPFQNKTKLYPSGKGSSVPLDLTLFT
- Ratio (Deletedscore / WTscore) (bait BBC1): 0.3637
- Ratio (Deletedscore / WTscore) (bait LSB1): 0.5725
- Ratio (Deletedscore / WTscore) (bait LSB3): 0.8547
- Ratio (Deletedscore / WTscore) (bait MYO3): 0.5955
- Ratio (Deletedscore / WTscore) (bait PIN3): 0.5606

B3: YML016C_1 (protein, UniProt P26570 2-692, looked up)
Serine/threonine-protein …: GNSSSKSSKKDSHSNSSSRNPRPQVSRTETSHSVKSAKSNKSSRSRRSLPSSSTTNTNSNVPDPSTPSKPNLEVNHQRHSSHTNRYHFPSSSHSHSNSQNELLTTPSSSSTKRPSTSRRSSYNTKAAADLPPSMIQMEPKSPILKTNNSSTHVSKHKSSYSSTYYENALTDDDNDDKDNDISHTKRFSRSSNSRPSSIRSGSVSRRKSDVTHEEPNNGSYSSNNQENYLVQALTRSNSHASSLHSRKSSFGSDGNTAYSTPLNSPGLSKLTDHSGEYFTSNSTSSLNHHSSRDIYPSKHISNDDDIENSSQLSNIHASMENVNDKNNNITDSKKDPNEEFNDIMQSSGNKNAPKKFKKPIDIDETIQKLLDAGYAAKRTKNVCLKNNEILQICIKAREIFLSQPSLLELSPPVKIVGDVHGQYGDLLRLFTKCGFPPSSNYLFLGDYVDRGKQSLETILLLFCYKIKYPENFFLLRGNHECANVTRVYGFYDECKRRCNIKIWKTFIDTFNTLPLAAIVAGKIFCVHGGLSPVLNSMDEIRHVVRPTDVPDFGLINDLLWSDPTDSPNEWEDNERGVSYCYNKVAINKFLNKFGFDLVCRAHMVVEDGYEFFNDRSLVTVFSAPNYCGEFDNWGAVMSVSEGLLCSFELLDPLDSAALKQVMKKGRQERKLANQQQQMMETSITNDNESQQ
- Ratio (Deletedscore / WTscore) (bait BBC1): 0.8012
- Ratio (Deletedscore / WTscore) (bait BEM1-2): 0.6049
- Ratio (Deletedscore / WTscore) (bait MYO3): 0.8355
